Sequences and labels used below:
B1: CPEB3 Ribozyme (parent)
chain: GGGGGCCACAGCAGAAGCGUUCACGUCGCGGCCCCUGUCAGAUUCUGGUGAAUCUGCGAAUUCUGCUGU

In the data set the parent is B1. Description: self-cleavage, relative activity (ratio to wild type); higher = more cleavage; co-transcriptional.
Turning to GGGGGCCACAGCAGAAGCGUUCACGUCGCGGCCCCUGUCAGAUUCUGCUGAAUCUGCGAAGUCUGCUGU, the self-cleavage turned out to be 0.907.
In the case of GGGGGCCACAGCAGAAGCGUUCACGUCGCGGCCCCUGUCAGAUUCUGCUGAAUCUGCGAACUCUGCUGU, the self-cleavage stood at 0.866.
For GGGGGCCACAGCAGAAGCGUUCACGUCGCGGCCCCUGUCAGAUUCUGCAGAAUCUGCGAAUUCUGCUGU the value was 0.976; for GGGGGCCACAGCAGAAGCGUUCACGUCGCGGCCCCUGUCAGAUUCUGCCGAAUCUGCGAAUUCUGCUGU, 0.993; for GGGGGCCACAGCAGAAGCGUUCACGUCGCGGCCCCUGUCAGAUUCUGCGGAAUCUGCGAAUUCUGCUGU, 1.06.
For the variant GGGGGCCACAGCAGAAGCGUUCACGUCGCGGCCCCUGUCAGAUUCUGUUGAAUCUGCGAAUUCUGCUGU, the self-cleavage came out at 0.999.
To GGGGGCCACAGCAGAAGCGUUCACGUCGCGGCCCCUGUCAGAUUCUGCUGAAUCUGCGAAUUCUGCUGU belongs 0.999; to GGGGGCCACAGCAGAAGCGUUCACGUCGCGGCCCCUGUCAGAUUCUGUUGAAUCUGAGAAUUCUGCUGU, 0.316; to GGGGGCCACAGCAGAAGCGUUCACGUCGCGGCCCCUGUCAGAUUCUGCUGAAUCUGCGAAUUCUGCCGU, 0.998.
To GGGGGCCACAGCAGAAGCGUUCACGUCGCGGCCCCUGUCAGAUUCUGCUGAAUCUGCGAAUUCUGCAGU belongs 1.01; to GGGGGCCACAGCAGAAGCGUUCACGUCGCGGCCCCUGUCAGAUUCUGCUGAAUCUGCGAAUUCUGCGGU, 1.04; to GGGGGCCACAGCAGAAGCGUUCACGUCGCGGCCCCUGUCAGAUUCUGCUGAACCUGCGAAUUCUGCUGU, 0.96.
For GGGGGCCACAGCAGAAGCGUUCACGUCGCGGCCCCUGUCAGAUUCUGCUGAAGCUGCGAAUUCUGCUGU the value was 0.913.
Regarding GGGGGCCACAGCAGAAGCGUUCACGUCGCGGCCCCUGUCAGAUUCUGCUGAAUCUGCGAUUUCUGCUGU, the self-cleavage was 0.552.
For GGGGGCCACAGCAGAAGCGUUCACGUCGCGGCCCCUGUCAGAUUCUGCUGAAUCUGCGACUUCUGCUGU the value was 0.239; for GGGGGCCACAGCAGAAGCGUUCACGUCGCGGCCCCUGUCAGAUUCUGCUGGAUCUGCGAAUUCUGCUGU, 0.995; for GGGGGCCACAGCAGAAGCGUUCACGUCGCGGCCCCUGUCAGAUUCUGUUGAAUCUGCGAAUUCUCCUGU, 0.798.
For GGGGGCCACAGCAGAAGCGUUCACGUCGCGGCCCCUGUCAGAUUCUGUUGAAUCUGCGAAUUCUUCUGU the value was 0.909; for GGGGGCCACAGCAGAAGCGUUCACGUCGCGGCCCCUGUCAGAUUCUGUUGGAUCUGCGAAUUCUGCUGU, 0.959.
To GGGGGCCACAGCAGAAGCGUUCACGUCGCGGCCCCUGUCAGAUUCUGUUGCAUCUGCGAAUUCUGCUGU belongs 0.978; to GGGGGCCACAGCAGAAGCGUUCACGUCGCGGCCCCUGUCAGAUUCUGUUGUAUCUGCGAAUUCUGCUGU, 1.
As to GGGGGCCACAGCAGAAGCGUUCACGUCGCGGCCCCUGUCAGAUUCUGUUGAAUCUGCGAAUUUUGCUGU, the self-cleavage is 1.03.
For GGGGGCCACAGCAGAAGCGUUCACGUCGCGGCCCCUGUCAGAUUCUGUUGAAUCUGCGAAUUGUGCUGU the value was 0.878; for GGGGGCCACAGCAGAAGCGUUCACGUCGCGGCCCCUGUCAGAUUCUGUUGAAUCUGCGAAUUAUGCUGU, 0.956; for GGGGGCCACAGCAGAAGCGUUCACGUCGCGGCCCCUGUCAGAUUCUGCUGAAUCUGCGAAUUUUGCUGU, 0.981.
As to GGGGGCCACAGCAGAAGCGUUCACGUCGCGGCCCCUGUCAGAUUCUGCUGAAUCUGCGAAUUAUGCUGU, the self-cleavage came to 0.931.
To GGGGGCCACAGCAGAAGCGUUCACGUCGCGGCCCCUGUCAGAUUCUGCUGAAUCUGCGAAUUCUGCUAU belongs 0.971; to GGGGGCCACAGCAGAAGCGUUCACGUCGCGGCCCCUGUCAGAUUCUGCUGAAUCUGCCAAUUCUGCUGU, 0.974; to GGGGGCCACAGCAGAAGCGUUCACGUCGCGGCCCCUGUCAGAUUCUGCUGAAUCUGCAAAUUCUGCUGU, 0.917.
For GGGGGCCACAGCAGAAGCGUUCACGUCGCGGCCCCUGUCAGAUUCUGCUGAAUCAGCGAAUUCUGCUGU the value was 1.
Regarding GGGGGCCACAGCAGAAGCGUUCACGUCGCGGCCCCUGUCAGAUUCUGCUGAUUCUGCGAAUUCUGCUGU, the self-cleavage turned out to be 0.971.
For GGGGGCCACAGCAGAAGCGUUCACGUCGCGGCCCCUGUCAGAUUCUGCUGAGUCUGCGAAUUCUGCUGU the value was 1.04.
For GGGGGCCACAGCAGAAGCGUUCACGUCGCGGCCCCUGUCAGAUUCUGCUGACUCUGCGAAUUCUGCUGU the value was 0.994; for GGGGGCCACAGCAGAAGCGUUCACGUCGCGGCCCCUGUCAGAUUCUGUUGAACCUGCGAAUUCUGCUGU, 1.04; for GGGGGCCACAGCAGAAGCGUUCACGUCGCGGCCCCUGUCAGAUUCUGCUGAAUCUGCGAAUUCCGCUGU, 0.938.
To GGGGGCCACAGCAGAAGCGUUCACGUCGCGGCCCCUGUCAGAUUCUGCUGAAUCUGCGAAUUCUUCUGU belongs 0.869.
For GGGGGCCACAGCAGAAGCGUUCACGUCGCGGCCCCUGUCAGAUUCUGCUGAAUCUGCGAAUUCUCCUGU, the self-cleavage came to 0.775.
For GGGGGCCACAGCAGAAGCGUUCACGUCGCGGCCCCUGUCAGAUUCUGCUGAAUCUGCGAAUUCUACUGU the value was 0.926; for GGGGGCCACAGCAGAAGCGUUCACGUCGCGGCCCCUGUCAGAUUCUGCUGAAUCUCCGAAUUCUGCUGU, 0.778.

(Values after the RNAGym collection of RNA variant scans (doi:10.7554/elife.80360).)
